Measurements: publication PMC7062661, “Expression and purification of the 5′-nucleotidase YitU from Bacillus species: its enzymatic properties and possible applications in biotechnology” (Applied Microbiology and Biotechnology, 2020)

How the values were obtained:
Assay in all cases: purified protein
purified protein [1] = substrate: NC(=O)c1ncn([C@@H]2O[C@H](COP(=O)(O)O)[C@@H](O)[C@H]2O)c1N; settings: 50 mM imidazole pH 7.0, 5 mM MgCl2, 30 °C, Hill plot fit (sigmoidal kinetics)
purified protein [2] = substrate: Cc1cc2nc3c(=O)[nH]c(=O)nc-3n(C[C@H](O)[C@H](O)[C@H](O)COP(=O)(O)O)c2cc1C; settings: 50 mM imidazole pH 7.0, 5 mM MgCl2, 30 °C
purified protein [3] = substrate: Nc1ncnc2c1ncn2[C@@H]1O[C@H](COP(=O)(O)O)[C@@H](O)[C@H]1O; settings: 50 mM imidazole pH 7.0, 5 mM MgCl2, 30 °C
purified protein [4] = substrate: Nc1ccn([C@@H]2O[C@H](COP(=O)(O)O)[C@@H](O)[C@H]2O)c(=O)n1; settings: 50 mM imidazole pH 7.0, 5 mM MgCl2, 30 °C
purified protein [5] = substrate: Nc1nc2c(ncn2[C@@H]2O[C@H](COP(=O)(O)O)[C@@H](O)[C@H]2O)c(=O)[nH]1; settings: 50 mM imidazole pH 7.0, 5 mM MgCl2, 30 °C
purified protein [6] = substrate: Nc1nc2c(ncn2[C@H]2C[C@H](O)[C@@H](COP(=O)(O)O)O2)c(=O)[nH]1; settings: 50 mM imidazole pH 7.0, 5 mM MgCl2, 30 °C
purified protein [7] = substrate: Nc1ncnc2c1ncn2[C@H]1C[C@H](O)[C@@H](COP(=O)(O)O)O1; settings: 50 mM imidazole pH 7.0, 5 mM MgCl2, 30 °C
purified protein [8] = substrate: O=c1[nH]c(=O)c2ncn([C@@H]3O[C@H](COP(=O)(O)O)[C@@H](O)[C@H]3O)c2[nH]1; settings: 50 mM imidazole pH 7.0, 5 mM MgCl2, 30 °C

B1: Ht-YitUBs (Bacillus subtilis subsp. subtilis str. 168) (protein)
chain: METKPYLIALDLDGTLLKDDKTISENTLHTIQRLKDDGHYVCISTGRPYRSSSMYYQQMELTTPIVNFNGAFVHHPQDDSWGRYHTSLPLDVVKQLVDISESYNVHNVLAEVIDDVYFHYHDEHLIDAFNMNTTNVTVGDLRENLGEDVTSVLIHAKEEDVPAIRSYLSDVHAEVIDHRRWAAPWHVIEIIKSGMNKAVGLQKISDYYGVPRERIIAFGDEDNDLEMLEFAGCGVAMGNGIDAVKQIANRTTATNEEDGVARFLKEYFSL
K0.5 (purified protein [1]): 10.19 ± 1.50 mM | Vmax (purified protein [1]): 21.2 µmol/min/mg | kcat (purified protein [1]): 11.3 s⁻¹ | kcat/Km (purified protein [1]): 1110 M⁻¹ s⁻¹ | Km (purified protein [2]): 0.096 ± 0.015 mM | Vmax (purified protein [2]): 43.2 µmol/min/mg | kcat (purified protein [2]): 23 s⁻¹ | kcat/Km (purified protein [2]): 239000 M⁻¹ s⁻¹ | Km (purified protein [3]): 14.32 ± 1.01 mM | Vmax (purified protein [3]): 52.9 µmol/min/mg | kcat (purified protein [3]): 28.2 s⁻¹ | kcat/Km (purified protein [3]): 1970 M⁻¹ s⁻¹ | Km (purified protein [4]): 17.45 ± 1.82 mM | Vmax (purified protein [4]): 73.7 µmol/min/mg | kcat (purified protein [4]): 39.2 s⁻¹ | kcat/Km (purified protein [4]): 2250 M⁻¹ s⁻¹ | Km (purified protein [5]): 7.00 ± 0.29 mM | Vmax (purified protein [5]): 40 µmol/min/mg | kcat (purified protein [5]): 21.3 s⁻¹ | kcat/Km (purified protein [5]): 3040 M⁻¹ s⁻¹ | Km (purified protein [6]): 5.61 ± 0.79 mM | Vmax (purified protein [6]): 25.9 µmol/min/mg | kcat (purified protein [6]): 13.8 s⁻¹ | kcat/Km (purified protein [6]): 2460 M⁻¹ s⁻¹ | Km (purified protein [7]): 8.24 ± 0.42 mM | Vmax (purified protein [7]): 49.4 µmol/min/mg | kcat (purified protein [7]): 26.2 s⁻¹ | kcat/Km (purified protein [7]): 3190 M⁻¹ s⁻¹ | Km (purified protein [8]): 21.74 ± 2.93 mM | Vmax (purified protein [8]): 70.5 µmol/min/mg | kcat (purified protein [8]): 37.5 s⁻¹ | kcat/Km (purified protein [8]): 1720 M⁻¹ s⁻¹
